Test results taken from the supplement of paper PMC10567573.

B1: CLPTM1 (parent)
chain: LGCYAVYSLLYLEHKGWYSWVLSM
B2: RAB40A (parent)
chain: NWLGRPSKVLSLQDLCCRTIVSCT

Variants of: B1
Assay: protein stability index of a GFP-peptide fusion (GPS, HEK-293T) (PSI 1-6); higher = more stable
Details: c terminus: a fixed tail appended
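Note: lentivirally expressed fusions sorted by FACS into six bins by GFP to DsRed ratio, PSI derived from sequencing read proportions per bin multiplied by bin number.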

Protein stability index: each site, then its substitutions
C3: M 3.15, N 3.61, L 3.21, G 2.35, P 2.26, H 2.58, R 1.63, V 3.36, W 2.24, K 2.74, I 2.62, T 2.52, Y 3.21, F 2.37, S 3.55, D 2.59, E 3.26
A5: R 2.43, E 3.12, D 2.12, S 3.5, I 3.28, C 3.34, M 2, F 3.69, L 4.56, K 2.91, T 2.57, N 4.03, W 4.06, H 2.82
L1: C 2.92, E 3.05, N 3.26, T 3.54, D 2.85, R 3.05, Y 3.77, H 2.19, S 3.4, F 2.55, M 3.26, V 2.65, I 3.58, G 2.73, Q 4.62, W 2.96
G2: Q 3.29, I 2.87, M 3.58, S 1.47, V 2.32, E 3.26, N 3.83, Y 3.37, F 2.72, D 3.19, L 3.57, W 2.07, T 3.4, P 2.76, R 3.1
V6: L 3.28, D 3.58, A 3.13, E 2.84, H 2.31, K 2.83, G 2.72, M 2.22, C 4.28, F 3.45, I 3.34
Y4: P 3.14, R 2.91, M 3.4, Q 2.4, V 3.14, I 1.89, L 3.04, T 3.11, A 4.36, G 3.18, H 2.69, F 2.33, S 3.75, W 2.19, K 3.58, C 3.33, N 3.2, D 1.9

Variants of: B2
Assay: as above
Details: c terminus: a fixed tail appended

Protein stability index: each site, then its substitutions
P6: T 2.14, S 2.38, H 2.21, D 2.48, A 1.79, V 1.91, M 1.76, C 2.13, R 2.29, G 2.25, E 2.55, K 2.06, I 2.4, Q 2.06
C16: W 2.79, M 1.98, T 2.06, G 1.44, K 2.25, D 2.2, Y 1.44
V9: C 2.07, N 2.4, G 2.32, D 2.28, F 1.93, R 1.85, E 2.3, L 2.12, Y 2.23, T 2.45
Q13: R 3.23, A 2.86, W 2.82, F 2.75
I20: N 1.91, Y 2.1, E 2.04, M 2.83, G 2.47, T 1.73, C 2.32, L 2.74
L15: V 1.72, P 1.62, H 1.99, I 2.31, Q 2.42, K 2.16, E 2.15, F 1.45, N 2.18, W 2.1, T 1.92, G 1.74
S7: I 2.25, V 2.22, H 1.96, E 2.12, Q 2.47, N 1.95, W 1.82, Y 1.92, L 2.13, D 2.28, F 2.28
C17: D 2.79, W 2.03, I 2.54, R 3.23, H 2.88, T 3.23, E 3.08, L 2.77, A 2.66, K 3.26, M 2.54
S11: E 2.01, F 1.67, W 1.77, G 1.54, A 1.88, D 1.9, M 1.97, Q 2.11, Y 2.03, N 2.22, C 1.66, R 2.2
R18: S 2.58, L 2.11, Y 1.73, G 2, C 2.35, D 1.99, A 2.03, K 2.65, V 2.39, W 1.83, E 2.49, M 1.72, P 1.61
K8: V 1.89, Q 1.97, E 2.26, N 2.52, H 2.16, S 2.31, C 2.08, Y 1.96, W 2.33, A 1.98
T19: E 2.53, D 2.64, M 2.27, I 2.6, V 2.22, Q 2.31, S 2.51, N 2.91, A 2.52, W 1.97
V21: K 2.55, P 2.89, Y 2.08, F 2.43, L 2.04, A 2.64, Q 2.8, E 1.88, H 2.44, C 2.41, G 2.64
T24: F 2.63, P 3.02, M 2.27, N 2.87, G 2.6, I 1.58, H 2.64, A 2.5, L 2.31
S22: Q 2.59, V 1.77, D 2.83, E 2.57, W 2.04, M 2.61, H 2.26, T 2.4, Y 1.95
L3: A 2.53, T 2.95, V 2.26, Q 2.85, N 2.46, H 2.3, P 2.58, D 2.62, F 2.28
L12: Y 3.31, A 1.38, D 1.8, Q 2.31, S 1.73, H 2.31, P 1.48, G 3.06
L10: V 2.09, K 2.35, D 2.31, Y 2.43, R 2.6, C 2.04, Q 2.24, N 2.22, A 2.52, F 2.02, W 1.93
R5: Q 2.55, T 2.42, Y 2.06, V 2.52, K 2.42, P 3.14, G 2.35, C 2.76, H 2.25, A 2.46, E 2.7, D 2.51
W2: I 3.01, Q 3.14, L 2.68, D 3.7, V 2.71, S 2.96, K 3.11, P 2.81, C 2.71, Y 2.68, M 2.62
G4: I 2.13, W 2.09, F 2.23, A 2.73, N 2.27, V 2.56, Q 2.34, D 2.57, R 2.42, K 2.48, C 1.5, P 2.42
D14: P 1.97, T 2.11, Q 2.12, Y 2.04, S 2.07, G 2.45, I 1.48, W 1.84, M 1.58
N1: R 2.21, L 1.62, A 2.04, M 1.75, T 2.16, I 1.84, P 2.35, K 1.97, D 2.12, C 2.02
C23: D 3.12, S 2.95, V 2.21, A 2.74, Q 3.46, G 3.28, W 2.67, I 2.33, K 2.92, N 2.93
